Numbered stars: 1 amine (or outer) side, 2 acyl side, 3 side chain; on linkers, the order of the positions; unused ones are H or OH. Bridge positions count the residues as written; N and C are the ends. Square brackets hold non-standard residues; d marks the D form. Side chains are listed from the residue outwards. Ends that are not written are not given here. * marks the point of attachment. C18 diacid = O=C(O)CCCCCCCCCCCCCCCCC(=O)*; γGlu = O=C(O)[C@H](CCC(=O)[*:2])N[*:1]; Aib = CC(C)(N)C(=O)O
T1: human amylin receptor (calcitonin receptor co-expressed with receptor activity modifying protein, RAMP3) (human, UniProt P30988 25-474; O60896 24-148)
T1 sequence (looked up) 1: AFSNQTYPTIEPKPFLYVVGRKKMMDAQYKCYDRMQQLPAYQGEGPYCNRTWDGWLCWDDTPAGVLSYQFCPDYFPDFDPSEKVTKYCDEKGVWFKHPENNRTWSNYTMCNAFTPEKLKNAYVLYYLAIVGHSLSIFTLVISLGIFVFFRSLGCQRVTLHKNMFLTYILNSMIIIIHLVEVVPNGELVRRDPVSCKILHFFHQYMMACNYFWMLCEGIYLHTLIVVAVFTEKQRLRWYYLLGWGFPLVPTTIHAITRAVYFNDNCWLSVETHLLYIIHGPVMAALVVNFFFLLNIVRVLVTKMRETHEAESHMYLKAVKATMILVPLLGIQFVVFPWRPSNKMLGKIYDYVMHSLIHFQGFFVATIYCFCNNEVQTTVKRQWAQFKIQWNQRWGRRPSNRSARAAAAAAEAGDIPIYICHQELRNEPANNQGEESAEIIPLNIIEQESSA
T1 sequence (looked up) 2: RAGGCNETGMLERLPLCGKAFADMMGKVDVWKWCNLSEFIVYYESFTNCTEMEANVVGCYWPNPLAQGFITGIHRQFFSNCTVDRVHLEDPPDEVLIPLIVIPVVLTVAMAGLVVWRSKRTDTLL

T2: human calcitonin receptor (human, UniProt P30988 25-474)
T2 sequence (looked up): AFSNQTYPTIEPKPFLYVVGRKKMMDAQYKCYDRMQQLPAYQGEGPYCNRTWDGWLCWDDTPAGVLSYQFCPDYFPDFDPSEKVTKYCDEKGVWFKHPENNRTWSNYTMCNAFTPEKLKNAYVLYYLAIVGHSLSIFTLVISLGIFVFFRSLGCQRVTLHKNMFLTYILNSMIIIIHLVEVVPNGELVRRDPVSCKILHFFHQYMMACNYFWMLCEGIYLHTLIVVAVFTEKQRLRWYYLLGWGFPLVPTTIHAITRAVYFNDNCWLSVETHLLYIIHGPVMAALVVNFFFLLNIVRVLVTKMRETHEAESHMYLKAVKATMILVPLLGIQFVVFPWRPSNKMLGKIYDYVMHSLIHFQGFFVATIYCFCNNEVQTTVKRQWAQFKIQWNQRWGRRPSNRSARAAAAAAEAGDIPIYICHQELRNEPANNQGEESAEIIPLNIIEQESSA


Tests used:
[1] = target: T1, human amylin receptor (calcitonin …); experiment: cell-based or functional assay
[2] = target: T2, human calcitonin receptor; experiment: cell-based or functional assay

Binder	EC50 (cAMP production) [1]	Ratio (EC50 hCTR / EC50 hAMYR3) [1]	EC50 (cAMP production) [2]
K([γGlu-C18 diacid])KCNTATCATQRLAHFL[Aib]HSS[Aib]NFGPILPPTEVGSNTY-NH2 (disulfide 3-8; N-terminus assumed; SMILES CC[C@H](C)[C@H](NC(=O)[C@@H]1CCCN1C(=O)CNC(=O)[C@H](Cc1ccccc1)NC(=O)[C@H](CC(N)=O)NC(=O)C(C)(C)NC(=O)[C@H](CO)NC(=O)[C@H](CO)NC(=O)[C@H](Cc1c[nH]cn1)NC(=O)C(C)(C)NC(=O)[C@H](CC(C)C)NC(=O)[C@H](Cc1ccccc1)NC(=O)[C@H](Cc1c[nH]cn1)NC(=O)[C@H](C)NC(=O)[C@H](CC(C)C)NC(=O)[C@H](CCCNC(=N)N)NC(=O)[C@H](CCC(N)=O)NC(=O)[C@@H](NC(=O)[C@H](C)NC(=O)[C@@H]1CSSC[C@H](NC(=O)[C@H](CCCCN)NC(=O)[C@@H](N)CCCCNC(=O)CC[C@H](NC(=O)CCCCCCCCCCCCCCCCC(=O)O)C(=O)O)C(=O)N[C@@H](CC(N)=O)C(=O)N[C@@H]([C@@H](C)O)C(=O)N[C@@H](C)C(=O)N[C@@H]([C@@H](C)O)C(=O)N1)[C@@H](C)O)C(=O)N[C@@H](CC(C)C)C(=O)N1CCC[C@H]1C(=O)N1CCC[C@H]1C(=O)N[C@H](C(=O)N[C@@H](CCC(=O)O)C(=O)N[C@H](C(=O)NCC(=O)N[C@@H](CO)C(=O)N[C@@H](CC(N)=O)C(=O)N[C@H](C(=O)N[C@@H](Cc1ccc(O)cc1)C(N)=O)[C@@H](C)O)C(C)C)[C@@H](C)O) [Peptide 86 (SEQ ID NO: 86)]	0.119 nM	3	0.311 nM
K([γGlu-C18 diacid])KCNTATCATQRLANFLVHSS[Aib]NFGPILPPTNVGSN[Aib]Y-NH2 (disulfide 3-8; N-terminus assumed; SMILES CC[C@H](C)[C@H](NC(=O)[C@@H]1CCCN1C(=O)CNC(=O)[C@H](Cc1ccccc1)NC(=O)[C@H](CC(N)=O)NC(=O)C(C)(C)NC(=O)[C@H](CO)NC(=O)[C@H](CO)NC(=O)[C@H](Cc1c[nH]cn1)NC(=O)[C@@H](NC(=O)[C@H](CC(C)C)NC(=O)[C@H](Cc1ccccc1)NC(=O)[C@H](CC(N)=O)NC(=O)[C@H](C)NC(=O)[C@H](CC(C)C)NC(=O)[C@H](CCCNC(=N)N)NC(=O)[C@H](CCC(N)=O)NC(=O)[C@@H](NC(=O)[C@H](C)NC(=O)[C@@H]1CSSC[C@H](NC(=O)[C@H](CCCCN)NC(=O)[C@@H](N)CCCCNC(=O)CC[C@H](NC(=O)CCCCCCCCCCCCCCCCC(=O)O)C(=O)O)C(=O)N[C@@H](CC(N)=O)C(=O)N[C@@H]([C@@H](C)O)C(=O)N[C@@H](C)C(=O)N[C@@H]([C@@H](C)O)C(=O)N1)[C@@H](C)O)C(C)C)C(=O)N[C@@H](CC(C)C)C(=O)N1CCC[C@H]1C(=O)N1CCC[C@H]1C(=O)N[C@H](C(=O)N[C@@H](CC(N)=O)C(=O)N[C@H](C(=O)NCC(=O)N[C@@H](CO)C(=O)N[C@@H](CC(N)=O)C(=O)NC(C)(C)C(=O)N[C@@H](Cc1ccc(O)cc1)C(N)=O)C(C)C)[C@@H](C)O) [Peptide 83 (SEQ ID NO: 83)]	0.599 nM	11	6.34 nM
K([γGlu-C18 diacid])KCNTATCATQRLANFLVHSS[Aib]NFGPILPPTNVG[Aib]NTY-NH2 (disulfide 3-8; N-terminus assumed; SMILES CC[C@H](C)[C@H](NC(=O)[C@@H]1CCCN1C(=O)CNC(=O)[C@H](Cc1ccccc1)NC(=O)[C@H](CC(N)=O)NC(=O)C(C)(C)NC(=O)[C@H](CO)NC(=O)[C@H](CO)NC(=O)[C@H](Cc1c[nH]cn1)NC(=O)[C@@H](NC(=O)[C@H](CC(C)C)NC(=O)[C@H](Cc1ccccc1)NC(=O)[C@H](CC(N)=O)NC(=O)[C@H](C)NC(=O)[C@H](CC(C)C)NC(=O)[C@H](CCCNC(=N)N)NC(=O)[C@H](CCC(N)=O)NC(=O)[C@@H](NC(=O)[C@H](C)NC(=O)[C@@H]1CSSC[C@H](NC(=O)[C@H](CCCCN)NC(=O)[C@@H](N)CCCCNC(=O)CC[C@H](NC(=O)CCCCCCCCCCCCCCCCC(=O)O)C(=O)O)C(=O)N[C@@H](CC(N)=O)C(=O)N[C@@H]([C@@H](C)O)C(=O)N[C@@H](C)C(=O)N[C@@H]([C@@H](C)O)C(=O)N1)[C@@H](C)O)C(C)C)C(=O)N[C@@H](CC(C)C)C(=O)N1CCC[C@H]1C(=O)N1CCC[C@H]1C(=O)N[C@H](C(=O)N[C@@H](CC(N)=O)C(=O)N[C@H](C(=O)NCC(=O)NC(C)(C)C(=O)N[C@@H](CC(N)=O)C(=O)N[C@H](C(=O)N[C@@H](Cc1ccc(O)cc1)C(N)=O)[C@@H](C)O)C(C)C)[C@@H](C)O) [Peptide 84 (SEQ ID NO: 84)]	0.118 nM	3	0.401 nM
K([γGlu-C18 diacid])KCNTATCATQRLANFLVHSS[Aib]NFGPILPPTNVGSNT[Aib]-NH2 (disulfide 3-8; N-terminus assumed; SMILES CC[C@H](C)[C@H](NC(=O)[C@@H]1CCCN1C(=O)CNC(=O)[C@H](Cc1ccccc1)NC(=O)[C@H](CC(N)=O)NC(=O)C(C)(C)NC(=O)[C@H](CO)NC(=O)[C@H](CO)NC(=O)[C@H](Cc1c[nH]cn1)NC(=O)[C@@H](NC(=O)[C@H](CC(C)C)NC(=O)[C@H](Cc1ccccc1)NC(=O)[C@H](CC(N)=O)NC(=O)[C@H](C)NC(=O)[C@H](CC(C)C)NC(=O)[C@H](CCCNC(=N)N)NC(=O)[C@H](CCC(N)=O)NC(=O)[C@@H](NC(=O)[C@H](C)NC(=O)[C@@H]1CSSC[C@H](NC(=O)[C@H](CCCCN)NC(=O)[C@@H](N)CCCCNC(=O)CC[C@H](NC(=O)CCCCCCCCCCCCCCCCC(=O)O)C(=O)O)C(=O)N[C@@H](CC(N)=O)C(=O)N[C@@H]([C@@H](C)O)C(=O)N[C@@H](C)C(=O)N[C@@H]([C@@H](C)O)C(=O)N1)[C@@H](C)O)C(C)C)C(=O)N[C@@H](CC(C)C)C(=O)N1CCC[C@H]1C(=O)N1CCC[C@H]1C(=O)N[C@H](C(=O)N[C@@H](CC(N)=O)C(=O)N[C@H](C(=O)NCC(=O)N[C@@H](CO)C(=O)N[C@@H](CC(N)=O)C(=O)N[C@H](C(=O)NC(C)(C)C(N)=O)[C@@H](C)O)C(C)C)[C@@H](C)O) [Peptide 85 (SEQ ID NO: 85)]	0.806 nM	4	3.1 nM

The remaining lines, values ahead:

EC50 (cAMP production) [1]	Ratio (EC50 hCTR / EC50 hAMYR3) [1]	EC50 (cAMP production) [2]	Binder
0.447 nM	18	8.24 nM	K([γGlu-γGlu-C18 diacid])CNTATCATQRLANFLVHSS[Aib]NFGPILPPT[Aib]VGSNTY-NH2 (disulfide 2-7) [Peptide 89 (SEQ ID NO: 89)]
0.071 nM	1	0.074 nM	K([γGlu-C18 diacid])KCNTATCATQRLANFL[Aib]HSS[Aib]NFGPILPPTNVGSNTP-NH2 (disulfide 3-8; N-terminus assumed; SMILES CC[C@H](C)[C@H](NC(=O)[C@@H]1CCCN1C(=O)CNC(=O)[C@H](Cc1ccccc1)NC(=O)[C@H](CC(N)=O)NC(=O)C(C)(C)NC(=O)[C@H](CO)NC(=O)[C@H](CO)NC(=O)[C@H](Cc1c[nH]cn1)NC(=O)C(C)(C)NC(=O)[C@H](CC(C)C)NC(=O)[C@H](Cc1ccccc1)NC(=O)[C@H](CC(N)=O)NC(=O)[C@H](C)NC(=O)[C@H](CC(C)C)NC(=O)[C@H](CCCNC(=N)N)NC(=O)[C@H](CCC(N)=O)NC(=O)[C@@H](NC(=O)[C@H](C)NC(=O)[C@@H]1CSSC[C@H](NC(=O)[C@H](CCCCN)NC(=O)[C@@H](N)CCCCNC(=O)CC[C@H](NC(=O)CCCCCCCCCCCCCCCCC(=O)O)C(=O)O)C(=O)N[C@@H](CC(N)=O)C(=O)N[C@@H]([C@@H](C)O)C(=O)N[C@@H](C)C(=O)N[C@@H]([C@@H](C)O)C(=O)N1)[C@@H](C)O)C(=O)N[C@@H](CC(C)C)C(=O)N1CCC[C@H]1C(=O)N1CCC[C@H]1C(=O)N[C@H](C(=O)N[C@@H](CC(N)=O)C(=O)N[C@H](C(=O)NCC(=O)N[C@@H](CO)C(=O)N[C@@H](CC(N)=O)C(=O)N[C@H](C(=O)N1CCC[C@H]1C(N)=O)[C@@H](C)O)C(C)C)[C@@H](C)O) [Peptide 87 (SEQ ID NO: 87)]
0.281 nM	4	1.17 nM	K([γGlu-C18 diacid])KCNTATCATQRLANFLVHSS[Aib]NFGPIL[Aib]PTNVGSNTY-NH2 (disulfide 3-8; N-terminus assumed; SMILES CC[C@H](C)[C@H](NC(=O)[C@@H]1CCCN1C(=O)CNC(=O)[C@H](Cc1ccccc1)NC(=O)[C@H](CC(N)=O)NC(=O)C(C)(C)NC(=O)[C@H](CO)NC(=O)[C@H](CO)NC(=O)[C@H](Cc1c[nH]cn1)NC(=O)[C@@H](NC(=O)[C@H](CC(C)C)NC(=O)[C@H](Cc1ccccc1)NC(=O)[C@H](CC(N)=O)NC(=O)[C@H](C)NC(=O)[C@H](CC(C)C)NC(=O)[C@H](CCCNC(=N)N)NC(=O)[C@H](CCC(N)=O)NC(=O)[C@@H](NC(=O)[C@H](C)NC(=O)[C@@H]1CSSC[C@H](NC(=O)[C@H](CCCCN)NC(=O)[C@@H](N)CCCCNC(=O)CC[C@H](NC(=O)CCCCCCCCCCCCCCCCC(=O)O)C(=O)O)C(=O)N[C@@H](CC(N)=O)C(=O)N[C@@H]([C@@H](C)O)C(=O)N[C@@H](C)C(=O)N[C@@H]([C@@H](C)O)C(=O)N1)[C@@H](C)O)C(C)C)C(=O)N[C@@H](CC(C)C)C(=O)NC(C)(C)C(=O)N1CCC[C@H]1C(=O)N[C@H](C(=O)N[C@@H](CC(N)=O)C(=O)N[C@H](C(=O)NCC(=O)N[C@@H](CO)C(=O)N[C@@H](CC(N)=O)C(=O)N[C@H](C(=O)N[C@@H](Cc1ccc(O)cc1)C(N)=O)[C@@H](C)O)C(C)C)[C@@H](C)O) [Peptide 88 (SEQ ID NO: 88)]
